Test results from patent US20260091122A1.

Experiments:
[1] = target: membrane of human CD14+ monocytes isolated from the peripheral blood of a healthy subject; assay: flow cytometry on human monocytes, AF647 label, 37 C
[2] = target: membrane of human macrophages differentiated in vitro in the presence of M-CSF from CD14+ monocytes; assay: flow cytometry on human macrophages, AF647 label, 37 C

“non-specific antibody corresponding to an isotype control coupled to the Alexa Fluor (AF) 647 fluorochrome” showed an MFI [1] of 265 MFI, a Ratio (MFI against that of the isotype control) [1] of 1 and an MFI [2] of 1640 MFI. It also gave a Ratio (MFI against that of the isotype control) [2] of 1.
